Data from paper doi:10.1101/2023.12.19.572259.
Read-outs that look alike come from different tables or passages of the source.

B1: 4NBX.B-biotin103 variant v186_Fr (VHH)
VHH: QVQLQESGGGLVQAGGSLRLSCAASGRTFSRSPMAWYRQPPGKEREFVAAGSSTGTTTYYADSVKGRFTISRDNAKNTVYLQMNSLKPEDTAVYYCAAAPLGCARKFAESAYWGQGTQVTVSS
B2: 4NBX.B-biotin103 variant v119 (VHH)
VHH: QVQLQESGGGLAQAGGSLRLSCAASGRTFSHAPMAWFRQPPGKEREFVAAGSSTGRTTYYADSVKGRFTISRDNAKNTVYLQMNSLKPEDTAVYYCAAAPYGCSHYRDEYAYWGQGTQVTVSS
B3: 4NBX.B-biotin103 variant v149 (VHH)
VHH: QVQLQESGGGLAQAGGSLRLSCAASGRTFSRSPMAWFRQPPGKEREFVAAGSSTGRTTYYADSVKGRFTISRDNAKNTVYLQMNSLKPEDTAVYYCAAAPYGCARYRDEYAYWGQGTQVTVSS

Experiments:
Assay in all cases: SPR
[1] = biological target: monomeric streptavidin variant mSA, wild type
[2] = biological target: monomeric streptavidin variant mSA with the S27A mutation
[3] = biological target: monomeric streptavidin variant mSA, wild type; remark: listed apart in the source

Molecule	Kd [1] [nM]	Kd [2] [nM]	Kd [3] [nM]	fold higher ka than v119 [3] [fold]	fold lower kd than v119 [3] [fold]
Smt3 SUMO protein biotinylated at the N-terminus with biotin C2 maleimide (from UniProt Q12306 1-101) (natural protein)	9.6				
B1		54	0.2		
B2			0.9		
B3			0.12	4	2
